# Values quoted from earlier work in PMC10179296.
# Target: CCL2 (Homo sapiens) (UniProt P13500)
# Experiment: isothermal fluorescence titration
# CCL2 (Homo sapiens), sequence (P13500 24-99): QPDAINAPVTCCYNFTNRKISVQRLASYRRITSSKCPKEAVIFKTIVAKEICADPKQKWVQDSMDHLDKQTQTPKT
# Tenascin-C, sequence (P24821 23-2201): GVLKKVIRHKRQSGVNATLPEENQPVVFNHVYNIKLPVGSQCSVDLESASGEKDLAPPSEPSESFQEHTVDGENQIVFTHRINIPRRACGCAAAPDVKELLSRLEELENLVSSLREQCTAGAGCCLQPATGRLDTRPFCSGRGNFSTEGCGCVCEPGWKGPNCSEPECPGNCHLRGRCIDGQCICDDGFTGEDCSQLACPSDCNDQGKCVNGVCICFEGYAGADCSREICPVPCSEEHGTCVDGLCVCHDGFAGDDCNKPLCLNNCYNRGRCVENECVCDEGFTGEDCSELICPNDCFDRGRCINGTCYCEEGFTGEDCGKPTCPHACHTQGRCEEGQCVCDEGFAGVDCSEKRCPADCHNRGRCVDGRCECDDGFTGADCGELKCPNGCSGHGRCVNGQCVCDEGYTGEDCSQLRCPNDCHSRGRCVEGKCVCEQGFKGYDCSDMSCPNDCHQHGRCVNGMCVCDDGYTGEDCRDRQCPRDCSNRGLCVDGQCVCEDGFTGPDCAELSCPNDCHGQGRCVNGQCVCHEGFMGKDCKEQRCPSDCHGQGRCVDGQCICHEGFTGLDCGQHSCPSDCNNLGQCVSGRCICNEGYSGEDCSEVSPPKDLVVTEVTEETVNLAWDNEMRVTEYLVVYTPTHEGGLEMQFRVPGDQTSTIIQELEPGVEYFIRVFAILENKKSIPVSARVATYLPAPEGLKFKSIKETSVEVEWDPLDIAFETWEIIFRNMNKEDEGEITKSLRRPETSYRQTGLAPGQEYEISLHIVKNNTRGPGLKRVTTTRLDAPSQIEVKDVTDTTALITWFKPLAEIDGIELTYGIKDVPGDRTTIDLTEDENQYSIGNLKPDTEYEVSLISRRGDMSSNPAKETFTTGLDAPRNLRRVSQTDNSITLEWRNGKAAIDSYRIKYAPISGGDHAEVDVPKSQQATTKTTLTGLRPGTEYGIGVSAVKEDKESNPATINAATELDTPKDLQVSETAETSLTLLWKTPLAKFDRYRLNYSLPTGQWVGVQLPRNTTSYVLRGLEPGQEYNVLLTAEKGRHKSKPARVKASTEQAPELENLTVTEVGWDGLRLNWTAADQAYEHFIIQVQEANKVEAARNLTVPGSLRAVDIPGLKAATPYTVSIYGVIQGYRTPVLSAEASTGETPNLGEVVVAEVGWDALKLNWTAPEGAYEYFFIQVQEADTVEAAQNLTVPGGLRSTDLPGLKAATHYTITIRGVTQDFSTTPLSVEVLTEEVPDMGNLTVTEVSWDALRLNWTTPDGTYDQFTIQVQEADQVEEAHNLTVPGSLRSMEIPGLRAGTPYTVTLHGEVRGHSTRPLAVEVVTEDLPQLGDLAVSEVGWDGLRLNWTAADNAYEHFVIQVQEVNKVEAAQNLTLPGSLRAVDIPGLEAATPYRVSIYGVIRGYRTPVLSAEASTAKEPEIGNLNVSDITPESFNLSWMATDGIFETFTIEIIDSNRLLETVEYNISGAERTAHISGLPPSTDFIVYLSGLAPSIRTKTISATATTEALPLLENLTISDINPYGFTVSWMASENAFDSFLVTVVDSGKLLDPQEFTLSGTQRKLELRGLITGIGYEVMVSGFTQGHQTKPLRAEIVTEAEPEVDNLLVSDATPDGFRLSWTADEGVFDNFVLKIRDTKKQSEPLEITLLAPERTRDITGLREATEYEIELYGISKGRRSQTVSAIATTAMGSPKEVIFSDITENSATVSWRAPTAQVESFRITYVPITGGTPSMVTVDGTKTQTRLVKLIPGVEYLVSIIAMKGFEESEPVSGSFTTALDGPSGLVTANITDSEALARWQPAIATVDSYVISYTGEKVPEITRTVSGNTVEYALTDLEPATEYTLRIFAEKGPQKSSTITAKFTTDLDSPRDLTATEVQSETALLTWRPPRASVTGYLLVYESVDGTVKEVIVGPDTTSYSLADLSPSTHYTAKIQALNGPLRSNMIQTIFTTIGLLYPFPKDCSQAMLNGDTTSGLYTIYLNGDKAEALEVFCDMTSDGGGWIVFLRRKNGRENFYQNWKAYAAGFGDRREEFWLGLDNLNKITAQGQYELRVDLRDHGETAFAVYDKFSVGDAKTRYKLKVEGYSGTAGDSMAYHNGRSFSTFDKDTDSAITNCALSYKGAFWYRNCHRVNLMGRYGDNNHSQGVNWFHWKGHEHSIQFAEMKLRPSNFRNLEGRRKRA
substance,measurement,value
Tenascin-C (from UniProt P24821),Kd,2330 nM
